Ends that are not written are not given here.
Key:
FDP tendons = experiment: In vitro tissue culture tendon healing model, gel patch with BMSC and/or Substance P: biomechanical testing; assay type: cell-based, dogs; conditions: zone III tendon groups, Substance P 10^−9, 2 weeks and 4 weeks
Procedure: Mixed-breed dogs being euthanized for other IACUC approved studies were used to harvest bone marrow from which bone marrow stromal cells (BMSCs) were cultured. The FDP tendons were harvested from dogs also being euthanized for other IACUC approved studies and these tendons were transected at similar levels, repaired with a single suture and incubated in tissue culture medium. Six repair groups was studied: (1) tendons ends opposed with two single loop sutures of 6/0 nylon (Ethicon, Somerville N.J.); (2) tendons repaired as in group 1 with the interposition of a collagen gel scaffold to the repair site (positive control group); (3) tendons repaired as in group 1 with the interposition of a BMSC-seeded collagen gel scaffold to the repair site; (4) tendons repaired as in group 1, with the interposition of a BMSC-seeded collagen gel scaffold to the repair site and addition of Substance P; (5) tendons repaired as in group 1, with the interposition of a BMSC-seeded collagen gel scaffold to the repair site and addition of GDF-5; and (6) tendons repaired as in group 1, with the interposition of a BMSC-seeded collagen gel scaffold to the repair site and addition of SP and GDF-5. […]
Confluent plates of BMSC were washed twice with sterile PBS and then trypsinized. The cells were counted with a hemocytometer and centrifuged to remove the media, forming a cell pellet with a known number of cells. […]

BMSCs [1] = experiment: MTT cell proliferation assay of BMSCs with rhGDF-5; assay type: cell-based, dogs; conditions: day 10 of cell culture, 100 ng/mL rhGDF-5
Procedure: (§1) Immediately after euthanasia, 8.0 mL of bone marrow was aspirated from each tibia using a 15 mL syringe containing 2.0 mL of heparin solution. Heparin was removed and the bone marrow cells from one dog were divided into three 100-mm dishes in 10 mL of standard medium, which consists of minimal essential medium (MEM) with Earle's salts (Gibco, Grand Island, N.Y.), 10% fetal calf serum and 1% antibiotics (Antibiotic-Antimycotic, Gibco). The bone marrow cells were incubated at 37° C. with 5% CO2 and 95% air at 100% humidity. After 3 days, the medium containing floating cells was removed and new medium was added to the remaining adherent cells. These adherent cells were considered to be BMSCs. The medium was changed every 3 days. After the BMSCs formed colonies, they were treated with EDTA-trypsin to produce a cell suspension and centrifuged at 1500 rpm for 5 minutes to remove the EDTA-trypsin solution. The concentrated cell suspension was gathered in one tube and seeded in new dishes. Recombinant human GDF-5 (MBL, Woburn, Mass.) was added to the culture medium at a concentration of 100 ng/mL and culture continued for and additional 10 days.
Quantification of cell proliferation and viability was measured using Cell Proliferation Kit I (Roche, Basel, Switzerland). […] The absorbance was measured using Spectra Max Plus (Molecular Devises, Sunnyvale, Calif.). […]

BMSCs [2] = experiment: Quantitative RT-PCR of BMSCs cultured with GDF-5; assay type: cell-based, canine
Procedure: as §1
Total RNA was extracted from culture cells using RNeasy Micro kit (Qiagen, Valencia, Calif.), according to the manufacturer's recommendations. The RNA concentration was determined using a NanoDrop (Thermo scientific, Waltham, Mass.). RNA was reverse transcribed into single-stranded cDNA with an anchored-oligo(dT) primer using Transcriptor First Strand cDNA Synthesis Kit (Roche). The reverse transcriptase was inactivated by heating to 85° C. for 5 minutes. The expression of tenomodulin (a marker of tenocyte differentiation), collagen type I and collagen type III was quantified with LightCycler 480 SYBR Green I Master kit (Roche) in a LightCycler 480 instrument (Roche). HPRT served as the reference gene. Five samples were measured in each group.

## Substance P: neuropeptide, substance P (Sigma) (RPKPQQFFGLM-NH2; ends and bridges not checked; UniProt P20366 58-68, looked up)
FDP tendons
  maximum force compared with cell only control: significantly higher

B1: GDF-5: Recombinant human GDF-5 (MBL, Woburn, Mass.) (protein, UniProt P43026 382-501, looked up)
Growth/differentiation factor …: APLATRQGKRPSKNLKARCSRKALHVNFKDMGWDDWIIAPLEYEAFHCEGLCEFPLRSHLEPTNHAVIQTLMNSMDPESTPPTCCVPTRLSPISILFIDSANNVVYKQYEDMVVESCGCR
BMSCs [1]
  proliferation of BMSCs (MTT) compared with BMSCs without GDF5 stimulation: significantly increased
BMSCs [2]; 100 ng/mL
  collagen type I mRNA expression, treated vs untreated cells: no significant difference
  collagen type III mRNA expression, treated vs untreated cells: no significant difference
BMSCs [2]; day 10, 100 ng/mL
  expression of tenomodulin mRNA compared with untreated cells: increased

Source: patent US20120114755A1, “METHODS AND MATERIALS FOR TISSUE REPAIR” (MAYO FOUNDATION FOR MEDICAL EDUCATION AND RESEARCH, priority 2009, published 2012)
